Assay results: IntAct's records for PubMed 14660673

B1: F-box protein MET30 (Saccharomyces cerevisiae), P39014 (parent)
chain: MRRERQRMMSFEDKDKDDLDNSNSNNSSEMTDTAMMPPLKRLLITGSSDDLAQGSSGKKKMTMATRSPSSSPDLATNDSGTRVQPLPEYNFTKFCYRHNPDIQFSPTHTACYKQDLKRTQEINANIAKLPLQEQSDIHHIISKYSNSNDKIRKLILDGILSTSCFPQLSYISSLVTHMIKIDFISILPQELSLKILSYLDCQSLCNATRVCRKWQKLADDDRVWYHMCEQHIDRKCPNCGWGLPLLHMKRARIQQNSTGSSSNADIQTQTTRPWKVIYRERFKVESNWRKGHCRIQEFKGHMDGVLTLQFNYRLLFTGSYDSTIGIWDLFTGKLIRRLSGHSDGVKTLYFDDRKLITGSLDKTIRVWNYITGECISTYRGHSDSVLSVDSYQKVIVSGSADKTVKVWHVESRTCYTLRGHTEWVNCVKLHPKSFSCFSCSDDTTIRMWDIRTNSCLKVFRGHVGQVQKIIPLTIKDVENLATDNTSDGSSPQDDPTMTDGADESDTPSNEQETVLDENIPYPTHLLSCGLDNTIKLWDVKTGKCIRTQFGHVEGVWDIAADNFRIISGSHDGSIKVWDLQSGKCMHTFNGRRLQRETQHTQTQSLGDKVAPIACVCIGDSECFSGDEFGCVKMYKFDLND

Variants of: B1
Settings: with skp1_yeast SKP1, P52286
Chain of skp1_yeast SKP1, P52286 (P52286 whole entry): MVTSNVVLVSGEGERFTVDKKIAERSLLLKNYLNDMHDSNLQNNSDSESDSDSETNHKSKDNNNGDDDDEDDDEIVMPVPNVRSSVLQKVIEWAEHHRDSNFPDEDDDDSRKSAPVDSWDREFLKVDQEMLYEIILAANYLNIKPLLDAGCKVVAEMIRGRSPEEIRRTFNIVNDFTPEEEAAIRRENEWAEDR

Row | Variant | effect of a mutation on the interaction
1 | Q167R | disrupting interaction strength
2 | S169P | disrupting interaction strength
3 | S163N | disrupting interaction strength
4 | P188S | disrupting interaction strength
5 | P188L | disrupting interaction strength
6 | C211Y | disrupting interaction strength

Variants of: B1
Settings: with skp1_yeast SKP1, P52286
Remark: another data set of the same source

Row | Variant | effect of a mutation on the interaction
7 | L187D;E190A | decreasing interaction
